Results published in the RNAGym collection of RNA variant scans (doi:10.1021/acssynbio.7b00057).

B1: Pistol ribozyme (parent)
chain: GGGUCGUUGUUCCAUAAUCGCGUGGAUAUGGCACGCAAGUUUCUACCGGGCACCGUAAAUGUCCGACUGGAGCCGUUCGGGCGGCUAUAAACAGACCUCAGGCCCGAAGCGUGGCGGCACCUGCCGCCGGUGGUAAAAAAGAUCGGAAGAGCACACGUCU

Variants of: B1
Test: aptazyme ON/OFF ratio, guanine; higher = stronger switching; co-transcriptional cleavage with and without guanine

Variant	aptazyme ON/OFF ratio
U8A G9U U10A U11A C12A C13G	1.23
U7C G9U U10G U11G C12A C13U	1.17
U7A U10G U11G C13U	1.27
U7G U8C G9A U10C U11G C12U C13A	1.26
U7G G9A U11G C12U C13U	1.2
U7G U8A U10G C12G C13G	1.18
U8C C12G	1.38
U7C G9U U10C U11C C13U	1
U7G U8C G9C U10C U11G C12G	1.06
U7G U8A G9U U11G C12G	1.12
U7A U8C G9C U10C C13A	1.06
U7A G9A U11G C12A C13G	1.28
U7A U8C G9U U11G C12U C13U	1.28
U7C U8A G9C U10C U11A C13G	1.2
U7C U8C G9C U10A U11G C12U C13G	1.08
U8A U10G U11G C12U C13A	1.15
U7C G9U U10C C12G C13A	1.05
U7G U11G C12G C13U	1.04
U7A G9C C13G	1.06
U7C U8G G9U U10G C12A C13G	1.09
U7G U10C C12U C13G	1.06
U7A U8C G9A U10G C12A	1.1
U7C U8A U10A C13G	1.08
U7G U8A G9A U10G C12A C13A	1.18

Variant	aptazyme ON/OFF ratio
U7A G9A U10G C12U C13A	1.06
G9U U10G U11C C12G	1.65
G9U U10C C12A C13A	1.39
U7G U8A G9A C12G C13G	1.04
U7A U8A G9A C12G C13A	1.09
U8A G9U U10A U11A C13U	1.28
U7G U8A G9U U10G U11A	1.05
U7A G9U U10A U11A C13U	1.16
U7C U8G G9U U11G C12A C13A	1.17
U7A U8C U10G U11G C12A C13A	1.14
U7C U8C U11G C13U	1.3
U7C U8G G9U U10C U11C C12A C13A	1.06
U7A U8A U11G C13G	1.1
U7A U8C U10G U11G C12G C13G	1.19
U7A U8C G9A U10A C12G C13G	1.25
U7A U8A G9U U11G	1.36
U7G U8G G9C U10A C12U	1.02
U7C U8A G9C U10C U11G C12A C13G	1.17
U7C U8A G9C U10C U11G C13U	1.16
U7G U8A G9C U10G U11C C12G	1.04
U7A G9U U10C U11C C12A	1.09
U7C U8C G9U U10C U11C C12A C13A	1.12
U7A U8G G9A U10A	1.4
U8C G9U U10C U11A C12A C13A	1.09

Variant	aptazyme ON/OFF ratio
U7G U8G G9U U10A C13G	1.1
U7C U8G U10A U11C C12G C13U	1.24
U7G U8A G9C U11A C12G C13G	1
U8A U10A U11A C12U C13U	1.17
U7A U8A U10G C13A	1.31
U7G U8C U10A U11C C12A C13U	1.27
U7C U8A G9A U10A U11A C12A C13A	1.24
U8G U10G C12A C13A	1.26
U7C G9C U10A U11G C12A C13U	1.06
G9U U10G U11A C12A C13U	1.37
U7C U8A G9A U10A U11G C12A C13G	1.09
U7A U8A U10G U11C C12A C13G	1.09
U10A U11G C12A C13U	1.46
U7G U8G U10A U11G C12A C13A	1.05
U7C U8G G9A C12U C13A	1.16
U7A U8C G9C U10C U11G C13U	1.04
U8C U10C U11A C12G C13G	1.24
U7C U8A G9A U11G C12A C13U	1.09
U7C U8A G9U U10G U11G C13U	1.06
U7G U8C U10G U11C C13G	1.19
U7C U8A G9U U10A C12G C13G	1.17
U8C G9U U11C C12G C13A	1.13
U7G U8A G9A U10A C12U C13A	1.13
U8C G9U U10G U11C C12A C13U	1.52

Variant	aptazyme ON/OFF ratio
U7G G9C U11A C12U C13A	1.42
U7A U8A G9A U10A U11G C13G	1.18
U7G U8G G9C U10C U11C C12G C13A	1.05
U8G G9C C12A	1.07
U7G U8G G9C U10A U11G C12G	1.08
U7C U8C G9U	2.34
U8G G9U U10C U11G C12G C13G	1.14
U8C G9A U10A U11G C12U	1.26
U7G U8G U10G C12G	1.3
U7A U10C U11A C13U	1.16
U7A U8C G9C U11A C13A	1.05
U7C U8C G9A U10G U11C C12U	1.43
U8G G9U U10A U11G C12G C13U	1.37
U7A U8C G9A U10A U11G C12A C13U	1.16
U7G G9U U10C C12U	1.51
U7C U8C G9U U10G U11C C12G C13A	1.08
G9A C13G	1.07
U7G G9U U11C C12A C13A	1.42
U7C U8A G9C U10A U11A C12G	1.18
U7A G9U U10C U11G C12U C13U	1.27
U7A U8A G9C U11G C13A	1.22
U7C U8A U10G C12G	1.34
U8A G9U U10A C12G C13A	1.34
U7G U8A G9A U10G C13G	1.2

Variant	aptazyme ON/OFF ratio
U8C G9A U10G C12G	1.15
U7A U8A G9U U10A C12G C13G	1.18
U7A U10C U11G C12G C13G	1.31
U7G U8A G9U U10C C12A C13A	1.12
U8C U11G C12A	1.15
U7A G9C U10C C12A	1.04
U7C U8G U10C U11G C12G C13A	1.09
G9U U10G U11A C12G C13U	1.07
U8A G9C U10G C12U C13G	1.11
U7A G9A U10G U11G C12A C13G	1.29
U8G G9A C13A	1.24
U7G U8A G9U U10G U11A C12G C13U	1.12
U7G U8A G9C U10G C12U C13A	1.06
G9A U11C C12U	1.35
G9U U10A U11G C12A C13U	1.25
U7A U8A G9A U10A U11G C12U C13U	1.3
U7A U8G U10G C12A C13A	1.04
U8A G9A U10G C13G	1.21
G9C U10G U11G C12A C13U	1.11
U8A G9A U11C C12G C13G	1.15
U7C U8G U10C U11A	2.93
U7C G9A U10C C12A	1.27
U7C G9U U10C C12G	1.09
U7C U8C U10A C12G	1.08

Variant	aptazyme ON/OFF ratio
U7G U8G G9C U10A U11C C12U C13A	1.06
G9A U10G U11C C12U C13U	1.4
U7C G9C C13U	1.01
U8G G9C U11A C12U	1.05
U8A G9C U10G U11G C12U	1.23
U7G U8A U11C C13U	1.2
U7C U8A G9C U10C U11C C12U C13G	1.03
U7G U8A G9C U10G U11A C12U C13A	1.03
U7A G9C U10G U11A C12G C13G	1.21
U7G U8C C13U	1.46
U7G U8A G9C U10A	1.07
U7C U8A G9U U10A U11G C12U C13A	1.16
G9C U10C U11G	1.41
U7C U8C G9C U10A U11G C12U C13U	1.1
U7A G9U U10G	1.75
U7G U8G G9C U11A C13A	1.15
U7C U8A G9C U11A C12G C13A	1.13
U8A U10C U11A C13U	1.07
U7G U8C G9C U10G C13G	1.26
U7G G9C C12U	1.79
U7A U8G U10C U11G C12U C13U	1.31
U7C U8C G9C U10G C12G C13U	1.1
U7G U8A C12G	1.35
U7C U8A G9U U10C U11G C12A C13U	1.1

Variant	aptazyme ON/OFF ratio
U8A G9U U10A	1.31
U7C U8A G9U U10C U11G C13G	1.04
C12U C13A	1.28
U7A U8C G9C U10C C12G C13G	1.12
U7C G9C U10A U11A C12U	1.05
U8A G9C U10C U11G	0.775
U7A U8A U10A U11A	1.18
U7A U8G G9A U10C U11G C12G C13G	1.16
U7C U8A G9U U10A C13U	1.19
U10C U11G	1.57
U7G G9A U10G U11C C12G C13G	1.08
U7G U8G G9U U10A U11A C12U C13U	1.18
U7C G9A U10C U11C	1.12
U7A U8A G9C U10G U11G C12G C13G	1.13
U7A G9A U10A U11G C12G C13A	1.32
U7G U8A U10C C12G C13A	1.39
U7C G9A U10C U11G C12U	1.45
U7C U8A U11G C12G	1.19
U7A G9U U11G C12U C13A	1.35
U8G G9U U10A U11G C12U C13G	1.1
U8G G9C U10G U11C C12G C13G	1.05
U7A U8A U10A U11G C13G	1.28
U7G U8C U10G U11G C12G C13U	1.4
